Assay results reported in ChEMBL document CHEMBL5226320, “A versatile toolbox for investigating biological processes based on quinone methide chemistry: From self-immolative linkers to self-immobilizing agents” (Bioorg Med Chem, 2021).

Tests used:
Conditions in all cases: Homo sapiens
[1] = substrate: O=c1ccc2nc3ccc(OP(=O)(O)O)cc3oc-2c1; assay: (§1) Binding affinity to ALP (unknown origin) assessed as catalytic constant
[2] = substrate: O=c1ccc2nc3ccc(OCc4ccc(OP(=O)(O)O)cc4)cc3oc-2c1; assay: as §1
[3] = substrate: O=c1ccc2nc3ccc(OP(=O)(O)O)cc3oc-2c1; assay: (§2) Binding affinity to ALP (unknown origin)
[4] = substrate: O=c1ccc2nc3ccc(OCc4ccc(OP(=O)(O)O)cc4)cc3oc-2c1; assay: as §2
[5] = substrate: O=c1ccc2nc3ccc(OP(=O)(O)O)cc3oc-2c1; assay: (§3) Binding affinity to ALP (unknown origin) assessed as Kcat/Km
[6] = substrate: O=c1ccc2nc3ccc(OCc4ccc(OP(=O)(O)O)cc4)cc3oc-2c1; assay: as §3

B1: Alkaline phosphatase, germ cell type (Homo sapiens), P10696 (protein)
chain: MQGPWVLLLLGLRLQLSLGIIPVEEENPDFWNRQAAEALGAAKKLQPAQTAAKNLIIFLGDGMGVSTVTAARILKGQKKDKLGPETFLAMDRFPYVALSKTYSVDKHVPDSGATATAYLCGVKGNFQTIGLSAAARFNQCNTTRGNEVISVMNRAKKAGKSVGVVTTTRVQHASPAGAYAHTVNRNWYSDADVPASARQEGCQDIATQLISNMDIDVILGGGRKYMFPMGTPDPEYPDDYSQGGTRLDGKNLVQEWLAKHQGARYVWNRTELLQASLDPSVTHLMGLFEPGDMKYEIHRDSTLDPSLMEMTEAALLLLSRNPRGFFLFVEGGRIDHGHHESRAYRALTETIMFDDAIERAGQLTSEEDTLSLVTADHSHVFSFGGYPLRGSSIFGLAPGKARDRKAYTVLLYGNGPGYVLKDGARPDVTESESGSPEYRQQSAVPLDGETHAGEDVAVFARGPQAHLVHGVQEQTFIAHVMAFAACLEPYTACDLAPRAGTTDAAHPGPSVVPALLPLLAGTLLLLGTATAP
- kcat [1]: 0.16 s⁻¹
- kcat [2]: 0.26 s⁻¹
- Km [3]: 24.6 µM
- Km [4]: 15.3 µM
- kcat/Km [5]: 6.58 10^3/M/s
- kcat/Km [6]: 1.7 10^4/M/s
